Like-named read-outs stand apart in the source and are kept apart here.
Assay: Ratiometric fluorescence glucose titration of fluorescent conjugates
Format: binding
Design: key to Shape (fluorescence response to glucose) / Change (fluorescence response to glucose): m, monochromatic; d, dichromatic (i.e. spectral shape change); 0, no change
Details: tsGBP2 cysteine scan; for Kd: ratiometric fit at λ1 and λ2
From the text: Semi-synthetic FRSs can be engineered by site-specifically attaching thiol-reactive, environmentally sensitive fluorophores that respond to ligand-mediated conformational changes. Identification of FRS candidates that can be used for sensing applications comprises three steps: • 1. Cysteine scan. Mutant glucose-binding proteins containing single cysteines are constructed for site-specific attachment of thiol-reactive fluorophores. […] Candidate positions fall into three classes: endosteric, replacing a residue that contacts the ligand directly; peristeric, located at the rim of the binding site; allosteric (Marvin et al., 1997, Proc Natl Acad Sci USA, 94, 4366-71; Marvin, 1998, J Am Chem Soc, 120, 7-11), located outside the binding site at sites that undergo local structural changes in concert with the hinge-bending motion. • 2. Fluorophore screening. Thiol-reactive, environmentally sensitive fluorophores are attached to each cysteine mutant prepared in step 1. • 3. Evaluation of the glucose-mediated change of all the fluorescent conjugates prepared in step 2. Responses to ligand binding in which there is both a change in fluorescence emission intensity and spectral shape are essential for chemometric applications, because such changes enable ratiometric measurements. Changes in spectral shape typically are accompanied by a shift in the wavelength of the emission intensity maxima. Three classes of fluorescent responses are possible: • i. No response. • ii. Monochromatic response (emission intensity increases or decreases without a change in spectral shape) • iii.
Determination of temperature- and ligand-dependent fluorescence landscapes. […] Temperatures were advanced in 1K steps.
Determination of emission intensity spectra.
2 For a single glucose-binding site, the fractional saturation is given by […]

Molecule | Shape (fluorescence response to glucose) (Acrylodan conjugate) | Shape (fluorescence response to glucose) (Badan conjugate) | further results
D278C Acrylodan: tsGBP2_C278 (SEQ ID NO: 32) Acrylodan conjugate (conjugate, Acrylodan conjugate; tsGBP2_C278 (278C substitution mutant with signal peptide replaced with M and a GGSHHHHHH at C-terminus)) MKLEIFSWWAGDEGPALEALIRLYKQKYPGVEVINATVTGGAGVNAKAVLKTRMLGGDPPDTFQVHAGQELIGTWVVADRMEDLTSLFRQEGWLQAFPKGLIDLLSYKGGIWSVPVNIHRSNVMWYIPAKLKEWGVTPPKTWAEFLATAQTLKRKGLEAPLALGENWTQQHLWESVALATLGADGWNNLWSGKLKFTDPKAVAVWETFGKVLDAANKDAAGLSWQQAVDRVVQGKAAFNIMGDWAAGYMSTTLKLKPGTDFAWTPSPGTSGIFMMLSCSFGLPKGAKNRQNAINWLKLVGSKEGQDTFNPLKGSIAARLDSDPAKYNAYGQSAMKDWKSNRIVGSLVHGAVAPESFMSQFGTVMEIFLQSRNPQAAANAAQAIANQVGLGRGGSHHHHHH | m | – | –
H348 Badan: tsGBP2_C348 (SEQ ID NO: 35) Badan conjugate (conjugate, Badan conjugate; tsGBP2_C348 (348C substitution mutant with signal peptide replaced with M and a GGSHHHHHH at C-terminus)) MKLEIFSWWAGDEGPALEALIRLYKQKYPGVEVINATVTGGAGVNAKAVLKTRMLGGDPPDTFQVHAGQELIGTWVVADRMEDLTSLFRQEGWLQAFPKGLIDLLSYKGGIWSVPVNIHRSNVMWYIPAKLKEWGVTPPKTWAEFLATAQTLKRKGLEAPLALGENWTQQHLWESVALATLGADGWNNLWSGKLKFTDPKAVAVWETFGKVLDAANKDAAGLSWQQAVDRVVQGKAAFNIMGDWAAGYMSTTLKLKPGTDFAWTPSPGTSGIFMMLSDSFGLPKGAKNRQNAINWLKLVGSKEGQDTFNPLKGSIAARLDSDPAKYNAYGQSAMKDWKSNRIVGSLVCGAVAPESFMSQFGTVMEIFLQSRNPQAAANAAQAIANQVGLGRGGSHHHHHH | – | d | Kd (Badan conjugate, read-out: Kd ^appKd): ~4300 µM; Kd (Badan conjugate, read-out: Kd ^trueKd): ~5200 µM
W337 Acrylodan: tsGBP2_C337 (SEQ ID NO: 34) Acrylodan conjugate (conjugate, Acrylodan conjugate; tsGBP2_C337 (337C substitution mutant with signal peptide replaced with M and a GGSHHHHHH at C-terminus)) MKLEIFSWWAGDEGPALEALIRLYKQKYPGVEVINATVTGGAGVNAKAVLKTRMLGGDPPDTFQVHAGQELIGTWVVADRMEDLTSLFRQEGWLQAFPKGLIDLLSYKGGIWSVPVNIHRSNVMWYIPAKLKEWGVTPPKTWAEFLATAQTLKRKGLEAPLALGENWTQQHLWESVALATLGADGWNNLWSGKLKFTDPKAVAVWETFGKVLDAANKDAAGLSWQQAVDRVVQGKAAFNIMGDWAAGYMSTTLKLKPGTDFAWTPSPGTSGIFMMLSDSFGLPKGAKNRQNAINWLKLVGSKEGQDTFNPLKGSIAARLDSDPAKYNAYGQSAMKDCKSNRIVGSLVHGAVAPESFMSQFGTVMEIFLQSRNPQAAANAAQAIANQVGLGRGGSHHHHHH | m | – | –
K312C Acrylodan: tsGBP2_C312 (SEQ ID NO: 33) Acrylodan conjugate (conjugate, Acrylodan conjugate; tsGBP2_C312 (312C substitution mutant with signal peptide replaced with M and a GGSHHHHHH at C-terminus)) MKLEIFSWWAGDEGPALEALIRLYKQKYPGVEVINATVTGGAGVNAKAVLKTRMLGGDPPDTFQVHAGQELIGTWVVADRMEDLTSLFRQEGWLQAFPKGLIDLLSYKGGIWSVPVNIHRSNVMWYIPAKLKEWGVTPPKTWAEFLATAQTLKRKGLEAPLALGENWTQQHLWESVALATLGADGWNNLWSGKLKFTDPKAVAVWETFGKVLDAANKDAAGLSWQQAVDRVVQGKAAFNIMGDWAAGYMSTTLKLKPGTDFAWTPSPGTSGIFMMLSDSFGLPKGAKNRQNAINWLKLVGSKEGQDTFNPLCGSIAARLDSDPAKYNAYGQSAMKDWKSNRIVGSLVHGAVAPESFMSQFGTVMEIFLQSRNPQAAANAAQAIANQVGLGRGGSHHHHHH | d | – | Kd (Acrylodan conjugate, read-out: Kd ^appKd): 9 µM; Kd (Acrylodan conjugate, read-out: Kd ^trueKd): 10 µM
W337 Badan: tsGBP2_C337 (SEQ ID NO: 34) Badan conjugate (conjugate, Badan conjugate; tsGBP2_C337 (337C substitution mutant with signal peptide replaced with M and a GGSHHHHHH at C-terminus)) MKLEIFSWWAGDEGPALEALIRLYKQKYPGVEVINATVTGGAGVNAKAVLKTRMLGGDPPDTFQVHAGQELIGTWVVADRMEDLTSLFRQEGWLQAFPKGLIDLLSYKGGIWSVPVNIHRSNVMWYIPAKLKEWGVTPPKTWAEFLATAQTLKRKGLEAPLALGENWTQQHLWESVALATLGADGWNNLWSGKLKFTDPKAVAVWETFGKVLDAANKDAAGLSWQQAVDRVVQGKAAFNIMGDWAAGYMSTTLKLKPGTDFAWTPSPGTSGIFMMLSDSFGLPKGAKNRQNAINWLKLVGSKEGQDTFNPLKGSIAARLDSDPAKYNAYGQSAMKDCKSNRIVGSLVHGAVAPESFMSQFGTVMEIFLQSRNPQAAANAAQAIANQVGLGRGGSHHHHHH | – | 0 | –
K312C Badan: tsGBP2_C312 (SEQ ID NO: 33) Badan conjugate (conjugate, Badan conjugate; tsGBP2_C312 (312C substitution mutant with signal peptide replaced with M and a GGSHHHHHH at C-terminus)) MKLEIFSWWAGDEGPALEALIRLYKQKYPGVEVINATVTGGAGVNAKAVLKTRMLGGDPPDTFQVHAGQELIGTWVVADRMEDLTSLFRQEGWLQAFPKGLIDLLSYKGGIWSVPVNIHRSNVMWYIPAKLKEWGVTPPKTWAEFLATAQTLKRKGLEAPLALGENWTQQHLWESVALATLGADGWNNLWSGKLKFTDPKAVAVWETFGKVLDAANKDAAGLSWQQAVDRVVQGKAAFNIMGDWAAGYMSTTLKLKPGTDFAWTPSPGTSGIFMMLSDSFGLPKGAKNRQNAINWLKLVGSKEGQDTFNPLCGSIAARLDSDPAKYNAYGQSAMKDWKSNRIVGSLVHGAVAPESFMSQFGTVMEIFLQSRNPQAAANAAQAIANQVGLGRGGSHHHHHH | – | m | –
D278C Badan: tsGBP2_C278 (SEQ ID NO: 32) Badan conjugate (conjugate, Badan conjugate; tsGBP2_C278 (278C substitution mutant with signal peptide replaced with M and a GGSHHHHHH at C-terminus)) MKLEIFSWWAGDEGPALEALIRLYKQKYPGVEVINATVTGGAGVNAKAVLKTRMLGGDPPDTFQVHAGQELIGTWVVADRMEDLTSLFRQEGWLQAFPKGLIDLLSYKGGIWSVPVNIHRSNVMWYIPAKLKEWGVTPPKTWAEFLATAQTLKRKGLEAPLALGENWTQQHLWESVALATLGADGWNNLWSGKLKFTDPKAVAVWETFGKVLDAANKDAAGLSWQQAVDRVVQGKAAFNIMGDWAAGYMSTTLKLKPGTDFAWTPSPGTSGIFMMLSCSFGLPKGAKNRQNAINWLKLVGSKEGQDTFNPLKGSIAARLDSDPAKYNAYGQSAMKDWKSNRIVGSLVHGAVAPESFMSQFGTVMEIFLQSRNPQAAANAAQAIANQVGLGRGGSHHHHHH | – | 0 | –

From patent US11402384B2 (Duke University, priority 2015, dated 2022)
